{"source": "patent US9415012B2", "about": "“Sustained-release composition containing peptides as active ingredient” (IPSEN PHARMA S.A.S., priority 2011, dated 2016)", "test": "IE-HPLC analysis of rhGH deamidation before/after spray-drying", "assay_type": "physicochemical", "conditions": "130° C.", "description": "Recombinant human growth hormone in sodium carbonate buffer was dissolved in water. Sodium hyaluronate was present in the composition at a concentration of 2 mg/mL and rhGH at a concentration of 1 mg/mL. The weight ratio protein/sodium hyaluronate was equal to 0.5.\nThe composition was then spray dried with an inlet temperature of 130° C.\nAn ion-exchange high performance liquid chromatography (IE-HPLC) analysis was performed to evaluate the […] of rhGH and a size-exclusion chromatography high performance liquid chromatography (SEC-HPLC) analysis was performed to evaluate the aggregation of this protein."}
{"substance": "rhGH: recombinant human growth hormone", "values": [{"measurement": "Stability in the spray-drying process", "result": "degraded"}]}
